No end group written: not given here. TMR = tetramethyl rhodamine dye

The source of these data is publication PMC11931385, “Structural and functional analysis of cancer-associated missense variants in the retinoblastoma protein pocket domain” (The Journal of Biological Chemistry, 2025).

Assay in all cases: fluorescence polarisation; 37 °C, after the 25 °C reading ramped over 7 min to 37 °C and 2 min incubation; unlabeled Rb^P against 1.5 nM TMR-E2F1^TD or 7.5 nM TMR-E7^LxCxE; 25 mM Tris pH 8.0, 200 mM NaCl, 1 mM DTT, 0.1% Tween-20; apparent Kd
Holding throughout (details): both partners purified

In one assay the target is T1, Rb^P L550I (human, UniProt P06400 380-788, L550I).
T1 construct: also called variant 27
T1 sequence (looked up): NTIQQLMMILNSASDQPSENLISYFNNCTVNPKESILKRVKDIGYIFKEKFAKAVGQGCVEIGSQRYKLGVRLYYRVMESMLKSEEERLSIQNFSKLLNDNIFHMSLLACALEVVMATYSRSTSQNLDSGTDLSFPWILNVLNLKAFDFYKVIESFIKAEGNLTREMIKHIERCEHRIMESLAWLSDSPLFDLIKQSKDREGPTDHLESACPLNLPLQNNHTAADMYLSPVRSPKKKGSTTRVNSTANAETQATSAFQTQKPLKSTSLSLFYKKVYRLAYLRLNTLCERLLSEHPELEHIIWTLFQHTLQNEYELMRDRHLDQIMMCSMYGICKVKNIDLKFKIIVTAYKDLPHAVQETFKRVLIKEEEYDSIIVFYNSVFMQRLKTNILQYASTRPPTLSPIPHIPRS

A further assay concerns the target T2, Rb^P S474R (human, UniProt P06400 380-788, S474R).
T2 construct: also called variant 13
T2 sequence (looked up): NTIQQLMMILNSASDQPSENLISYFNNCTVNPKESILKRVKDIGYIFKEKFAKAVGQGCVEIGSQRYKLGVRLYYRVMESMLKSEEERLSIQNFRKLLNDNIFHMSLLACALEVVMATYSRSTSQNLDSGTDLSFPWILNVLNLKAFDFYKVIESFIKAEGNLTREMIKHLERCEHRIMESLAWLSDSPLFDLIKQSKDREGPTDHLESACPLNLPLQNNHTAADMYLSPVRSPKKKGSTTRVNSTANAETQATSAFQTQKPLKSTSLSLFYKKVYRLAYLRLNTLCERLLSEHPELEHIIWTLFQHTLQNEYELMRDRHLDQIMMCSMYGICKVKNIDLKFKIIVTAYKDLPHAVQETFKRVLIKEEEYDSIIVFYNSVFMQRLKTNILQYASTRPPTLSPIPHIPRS

Another assay addresses T3, Rb^P R621S (human, UniProt P06400 380-788, R621S).
T3 construct: also called variant 44
T3 sequence (looked up): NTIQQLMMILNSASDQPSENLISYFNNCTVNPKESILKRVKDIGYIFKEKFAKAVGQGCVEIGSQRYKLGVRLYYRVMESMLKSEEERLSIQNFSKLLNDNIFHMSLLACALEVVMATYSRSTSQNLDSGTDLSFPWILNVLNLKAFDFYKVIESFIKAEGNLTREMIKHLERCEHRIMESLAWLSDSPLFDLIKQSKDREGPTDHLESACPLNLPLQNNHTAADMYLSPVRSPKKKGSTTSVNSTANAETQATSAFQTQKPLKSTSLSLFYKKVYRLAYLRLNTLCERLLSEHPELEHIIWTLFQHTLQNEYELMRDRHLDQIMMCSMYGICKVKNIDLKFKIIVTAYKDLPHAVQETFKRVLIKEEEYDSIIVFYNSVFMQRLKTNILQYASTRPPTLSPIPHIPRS

The next assay concerns the target T4, Rb^P S648T (human, UniProt P06400 380-788, S648T).
T4 construct: also called variant 46
T4 sequence (looked up): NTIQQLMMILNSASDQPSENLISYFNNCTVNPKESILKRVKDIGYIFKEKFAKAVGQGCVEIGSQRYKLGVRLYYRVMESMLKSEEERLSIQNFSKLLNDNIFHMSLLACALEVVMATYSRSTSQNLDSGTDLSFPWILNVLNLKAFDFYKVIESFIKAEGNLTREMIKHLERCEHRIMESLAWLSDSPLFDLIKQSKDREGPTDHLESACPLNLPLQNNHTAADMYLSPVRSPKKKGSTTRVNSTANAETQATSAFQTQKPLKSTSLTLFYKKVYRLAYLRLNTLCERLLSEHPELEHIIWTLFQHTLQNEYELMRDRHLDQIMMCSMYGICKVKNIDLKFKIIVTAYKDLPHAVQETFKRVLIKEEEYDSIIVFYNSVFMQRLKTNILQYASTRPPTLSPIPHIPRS

For another assay, the target named is T5, Rb^P H673P (human, UniProt P06400 380-788, H673P).
T5 construct: also called variant 54
T5 sequence (looked up): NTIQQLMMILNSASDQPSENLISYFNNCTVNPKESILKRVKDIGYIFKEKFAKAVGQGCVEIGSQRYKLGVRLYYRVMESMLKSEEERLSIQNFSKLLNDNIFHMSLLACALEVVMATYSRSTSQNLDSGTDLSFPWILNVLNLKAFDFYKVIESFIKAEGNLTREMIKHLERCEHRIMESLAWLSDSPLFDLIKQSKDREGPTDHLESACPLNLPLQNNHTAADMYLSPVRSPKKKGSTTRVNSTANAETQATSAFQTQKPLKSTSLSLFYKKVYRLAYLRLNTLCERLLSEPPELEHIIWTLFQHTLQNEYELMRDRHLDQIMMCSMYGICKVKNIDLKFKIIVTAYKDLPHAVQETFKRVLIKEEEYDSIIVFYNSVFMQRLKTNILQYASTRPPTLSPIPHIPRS

B1: TMR-E2F1^TD, peptide of the E2F1 transactivation domain (peptide)
peptide: {TMR}-GEGIRDLFDCDFGDLTPLD
notes: also called E2F^TD; source: synthetic peptide, bought: GenScript
In the case of B1, the Kd was 80 nM with Rb^P L550I; 580 nM with Rb^P S474R; 38 nM with Rb^P R621S; 58 nM with Rb^P S648T; 98 nM with Rb^P H673P.

B2: TMR-E7^LxCxE, LxCxE peptide of the E7 oncoprotein from HPV (peptide)
peptide: DLYCYEQLN
modifications: also: TMR label, position not given here
notes: source: synthetic peptide, bought: GenScript
As for B2, the Kd with Rb^P L550I is 7 nM; with Rb^P S474R it was 15 nM; with Rb^P R621S it was 17 nM; in the assay with Rb^P S648T it was 14 nM; with Rb^P H673P, 83 nM.
